# Reference: patent US20260176254A1, “INHIBITORS OF PROSTATE SPECIFIC MEMBRANE ANTIGEN AND USE THEREOF” (SHANGHAI SINOTAU BIOTECH. CO., LTD, priority 2023, published 2026)
# How the values were obtained:
# [1] = Tissue biodistribution in 22Rv1 tumor mouse model; set-up: species or system mice; conditions: male, nude, in vivo, iv, total radioactivity
# Text: (§1) LnCAP and 22RV1 CDX xenograft tumor models were generated by inoculating 5×10^6 cells/site subcutaneously in male SCID or nude mice (Vital River), respectively. Animals were housed according to IACUC guidance and had accessed to food and water ad libitium. Animals were used for biodistribution study when the tumor dimensions reached around 0.2-0.3 cm^3. […] At each tome point, animals were sacrificed and tissues were collected, weighted, and subjected to radioactivity measurements using gamma counter. Radioactivity in the tissues was presented in % ID/g (percent of injected dose per gram).
# [2] = Tissue biodistribution in LnCAP tumor mouse model; set-up: species or system mice; conditions: male, SCID, in vivo, iv, total radioactivity
# Text: as §1
# [3] = Tissue biodistribution: Salivary Gland
smiles,measurement,setting,value
"O=C(O)CCC[C@H](NC(=O)N[C@@H](CCCCNC(=O)[C@H](Cc1c2ccccc2cc2ccccc12)Nc1c(NC23CCC(c4nnc(CN5CCN(CC(=O)O)CCN(CC(=O)O)CCN(CC(=O)O)CC5)o4)(CC2)CC3)c(=O)c1=O)C(=O)O)C(=O)O [[^177Lu]Lu-E7, metal not drawn]",tissue uptake dose at 2 h,[1],5.17 ± 0.12 %ID
same,tissue uptake dose at 6 h,[1],1.71 ± 0.03 %ID
same,tissue uptake dose at 24 h,[1],1.36 ± 0.04 %ID
same,tissue uptake dose at 72 h,[1],1.29 ± 0.06 %ID
same,tissue uptake dose at 168 h,[1],0.23 ± 0.02 %ID
same,tissue uptake at 2 h,[1]; Tissue biodistribution: Blood,0.23 ± 0.05 %ID/g
same,tissue uptake at 6 h,[1]; Tissue biodistribution: Blood,0.04 %ID/g
same,tissue uptake at 24 h,[1]; Tissue biodistribution: Blood,0.02 %ID/g
same,tissue uptake at 72 h,[1]; Tissue biodistribution: Blood,0.02 %ID/g
same,tissue uptake at 168 h,[1]; Tissue biodistribution: Blood,0.02 ± 0.01 %ID/g
same,tissue uptake at 2 h,[1]; Tissue biodistribution: Bone,0.3 ± 0.02 %ID/g
same,tissue uptake at 6 h,[1]; Tissue biodistribution: Bone,0.28 ± 0.05 %ID/g
same,tissue uptake at 24 h,[1]; Tissue biodistribution: Bone,0.26 ± 0.03 %ID/g
same,tissue uptake at 72 h,[1]; Tissue biodistribution: Bone,0.26 ± 0.06 %ID/g
same,tissue uptake at 168 h,[1]; Tissue biodistribution: Bone,0.29 ± 0.1 %ID/g
same,tissue uptake at 2 h,[1]; Tissue biodistribution: Heart,0.15 ± 0.02 %ID/g
same,tissue uptake at 6 h,[1]; Tissue biodistribution: Heart,0.06 ± 0.01 %ID/g
same,tissue uptake at 24 h,[1]; Tissue biodistribution: Heart,0.05 %ID/g
same,tissue uptake at 72 h,[1]; Tissue biodistribution: Heart,0.05 ± 0.01 %ID/g
same,tissue uptake at 168 h,[1]; Tissue biodistribution: Heart,0.07 ± 0.01 %ID/g
same,tissue uptake at 2 h,[1]; Tissue biodistribution: Kidney,15.2 ± 5.3 %ID/g
same,tissue uptake at 6 h,[1]; Tissue biodistribution: Kidney,8.27 ± 2.15 %ID/g
same,tissue uptake at 24 h,[1]; Tissue biodistribution: Kidney,6.73 ± 0.66 %ID/g
same,tissue uptake at 72 h,[1]; Tissue biodistribution: Kidney,2.88 ± 1.02 %ID/g
same,tissue uptake at 168 h,[1]; Tissue biodistribution: Kidney,0.95 ± 0.16 %ID/g
same,tissue uptake at 2 h,[1]; Tissue biodistribution: Liver,0.18 ± 0.02 %ID/g
same,tissue uptake at 6 h,[1]; Tissue biodistribution: Liver,0.11 ± 0.01 %ID/g
same,tissue uptake at 24 h,[1]; Tissue biodistribution: Liver,0.11 ± 0.01 %ID/g
same,tissue uptake at 72 h,[1]; Tissue biodistribution: Liver,0.12 ± 0.02 %ID/g
same,tissue uptake at 168 h,[1]; Tissue biodistribution: Liver,0.11 ± 0.02 %ID/g
same,tissue uptake at 2 h,[1]; Tissue biodistribution: Lung,0.41 ± 0.08 %ID/g
same,tissue uptake at 6 h,[1]; Tissue biodistribution: Lung,0.12 ± 0.02 %ID/g
same,tissue uptake at 24 h,[1]; Tissue biodistribution: Lung,0.1 %ID/g
same,tissue uptake at 72 h,[1]; Tissue biodistribution: Lung,0.07 ± 0.01 %ID/g
same,tissue uptake at 168 h,[1]; Tissue biodistribution: Lung,0.06 ± 0.01 %ID/g
same,tissue uptake at 2 h,[1]; Tissue biodistribution: Muscle,0.1 ± 0.02 %ID/g
same,tissue uptake at 6 h,[1]; Tissue biodistribution: Muscle,0.04 ± 0.02 %ID/g
same,tissue uptake at 24 h,[1]; Tissue biodistribution: Muscle,0.02 %ID/g
same,tissue uptake at 72 h,[1]; Tissue biodistribution: Muscle,0.02 %ID/g
same,tissue uptake at 168 h,[1]; Tissue biodistribution: Muscle,0.02 %ID/g
same,tissue uptake at 2 h,[1]; [3],0.16 ± 0.01 %ID/g
same,tissue uptake at 6 h,[1]; [3],0.07 ± 0.01 %ID/g
same,tissue uptake at 24 h,[1]; [3],0.08 %ID/g
same,tissue uptake at 72 h,[1]; [3],0.06 ± 0.01 %ID/g
same,tissue uptake at 168 h,[1]; [3],0.06 ± 0.02 %ID/g
same,tissue uptake at 2 h,[1]; Tissue biodistribution: Spleen,0.29 ± 0.03 %ID/g
same,tissue uptake at 6 h,[1]; Tissue biodistribution: Spleen,0.12 ± 0.03 %ID/g
same,tissue uptake at 24 h,[1]; Tissue biodistribution: Spleen,0.13 %ID/g
same,tissue uptake at 72 h,[1]; Tissue biodistribution: Spleen,0.12 ± 0.01 %ID/g
same,tissue uptake at 168 h,[1]; Tissue biodistribution: Spleen,0.15 ± 0.02 %ID/g
same,tissue uptake at 2 h,[1]; Tissue biodistribution: Tumor,15.6 ± 4.67 %ID/g
same,tissue uptake at 6 h,[1]; Tissue biodistribution: Tumor,15.6 ± 2.01 %ID/g
same,tissue uptake at 24 h,[1]; Tissue biodistribution: Tumor,17.9 ± 0.87 %ID/g
same,tissue uptake at 72 h,[1]; Tissue biodistribution: Tumor,12.1 ± 1.94 %ID/g
same,tissue uptake at 168 h,[1]; Tissue biodistribution: Tumor,4.04 ± 0.66 %ID/g
same,tissue to tissue ratio at 2 h,[1]; Tumor/Blood,70.2 ± 30
same,tissue to tissue ratio at 6 h,[1]; Tumor/Blood,425 ± 28
same,tissue to tissue ratio at 24 h,[1]; Tumor/Blood,848 ± 107
same,tissue to tissue ratio at 72 h,[1]; Tumor/Blood,737 ± 174
same,tissue to tissue ratio at 168 h,[1]; Tumor/Blood,345 ± 220
same,tissue to tissue ratio at 2 h,[1]; Tumor/Bone,52.9 ± 18.6
same,tissue to tissue ratio at 6 h,[1]; Tumor/Bone,57.4 ± 17.9
same,tissue to tissue ratio at 24 h,[1]; Tumor/Bone,70 ± 5.18
same,tissue to tissue ratio at 72 h,[1]; Tumor/Bone,47.8 ± 16.4
same,tissue to tissue ratio at 168 h,[1]; Tumor/Bone,15.6 ± 6.16
same,tissue to tissue ratio at 2 h,[1]; Tumor/Kidney,1.05 ± 0.32
same,tissue to tissue ratio at 6 h,[1]; Tumor/Kidney,1.99 ± 0.69
same,tissue to tissue ratio at 24 h,[1]; Tumor/Kidney,2.67 ± 0.15
same,tissue to tissue ratio at 72 h,[1]; Tumor/Kidney,4.48 ± 1.26
same,tissue to tissue ratio at 168 h,[1]; Tumor/Kidney,4.23 ± 0.07
"O=C(O)CC[C@H](NC(=O)N[C@@H](CCCCNC(=O)[C@H](Cc1ccc2ccccc2c1)NC(=O)[C@H]1CC[C@H](CNC(=O)CN2CCN(CC(=O)O)CCN(CC(=O)O)CCN(CC(=O)O)CC2)CC1)C(=O)O)C(=O)O [[^177Lu]Lu-PSMA-617, metal not drawn, reference compound]",tissue uptake dose at 2 h,[1],4.15 ± 0.06 %ID
same,tissue uptake dose at 24 h,[1],1.21 ± 0.03 %ID
same,tissue uptake at 2 h,[1]; Tissue biodistribution: Blood,0.08 ± 0.03 %ID/g
same,tissue uptake at 6 h,[1]; Tissue biodistribution: Blood,0.03 ± 0.01 %ID/g
same,tissue uptake at 24 h,[1]; Tissue biodistribution: Bone,0.11 ± 0.03 %ID/g
same,tissue uptake at 2 h,[1]; Tissue biodistribution: Heart,0.1 ± 0.02 %ID/g
same,tissue uptake at 6 h,[1]; Tissue biodistribution: Heart,0.06 ± 0.01 %ID/g
same,tissue uptake at 24 h,[1]; Tissue biodistribution: Heart,0.05 ± 0.01 %ID/g
same,tissue uptake at 72 h,[1]; Tissue biodistribution: Heart,0.05 ± 0.01 %ID/g
same,tissue uptake at 168 h,[1]; Tissue biodistribution: Heart,0.06 ± 0.01 %ID/g
same,tissue uptake at 2 h,[1]; Tissue biodistribution: Kidney,53 ± 27.4 %ID/g
same,tissue uptake at 6 h,[1]; Tissue biodistribution: Kidney,12.3 ± 6.38 %ID/g
same,tissue uptake at 24 h,[1]; Tissue biodistribution: Kidney,1.35 ± 0.48 %ID/g
same,tissue uptake at 168 h,[1]; Tissue biodistribution: Kidney,0.08 ± 0.03 %ID/g
same,tissue uptake at 2 h,[1]; Tissue biodistribution: Liver,0.09 ± 0.02 %ID/g
same,tissue uptake at 6 h,[1]; Tissue biodistribution: Liver,0.08 ± 0.02 %ID/g
same,tissue uptake at 24 h,[1]; Tissue biodistribution: Liver,0.05 ± 0.01 %ID/g
same,tissue uptake at 72 h,[1]; Tissue biodistribution: Liver,0.04 ± 0.01 %ID/g
same,tissue uptake at 168 h,[1]; Tissue biodistribution: Liver,0.03 ± 0.01 %ID/g
same,tissue uptake at 2 h,[1]; Tissue biodistribution: Lung,0.29 ± 0.05 %ID/g
same,tissue uptake at 24 h,[1]; Tissue biodistribution: Lung,0.06 ± 0.01 %ID/g
same,tissue uptake at 72 h,[1]; Tissue biodistribution: Lung,0.05 ± 0.01 %ID/g
same,tissue uptake at 168 h,[1]; Tissue biodistribution: Lung,0.05 %ID/g
same,tissue uptake at 2 h,[1]; Tissue biodistribution: Muscle,0.09 ± 0.03 %ID/g
same,tissue uptake at 6 h,[1]; Tissue biodistribution: Muscle,0.05 ± 0.02 %ID/g
same,tissue uptake at 6 h,[1]; [3],0.1 ± 0.02 %ID/g
same,tissue uptake at 24 h,[1]; [3],0.06 ± 0.01 %ID/g
same,tissue uptake at 72 h,[1]; [3],0.05 ± 0.02 %ID/g
same,tissue uptake at 168 h,[1]; [3],0.05 ± 0.01 %ID/g
same,tissue uptake at 2 h,[1]; Tissue biodistribution: Spleen,0.78 ± 0.11 %ID/g
same,tissue uptake at 72 h,[1]; Tissue biodistribution: Spleen,0.11 ± 0.04 %ID/g
same,tissue uptake at 168 h,[1]; Tissue biodistribution: Spleen,0.09 ± 0.03 %ID/g
same,tissue uptake at 2 h,[1]; Tissue biodistribution: Tumor,11.4 ± 2.27 %ID/g
same,tissue uptake at 6 h,[1]; Tissue biodistribution: Tumor,12.6 ± 3.23 %ID/g
same,tissue uptake at 24 h,[1]; Tissue biodistribution: Tumor,9.84 ± 1.45 %ID/g
same,tissue uptake at 72 h,[1]; Tissue biodistribution: Tumor,5.57 ± 0.6 %ID/g
same,tissue uptake at 168 h,[1]; Tissue biodistribution: Tumor,0.96 ± 0.5 %ID/g
same,tissue uptake dose at 2 h,[2],8.53 ± 0.64 %ID
same,tissue uptake dose at 6 h,[2],3.71 ± 1.76 %ID
same,tissue uptake dose at 24 h,[2],4.44 ± 3.53 %ID
same,tissue uptake dose at 72 h,[2],1.03 ± 0.18 %ID
same,tissue uptake dose at 168 h,[2],0.73 ± 0.03 %ID
same,tissue uptake at 2 h,[2]; Tissue biodistribution: Blood,0.38 ± 0.05 %ID/g
same,tissue uptake at 6 h,[2]; Tissue biodistribution: Blood,0.08 ± 0.04 %ID/g
same,tissue uptake at 24 h,[2]; Tissue biodistribution: Blood,0.03 ± 0.01 %ID/g
same,tissue uptake at 6 h,[2]; Tissue biodistribution: Bone,0.2 ± 0.01 %ID/g
same,tissue uptake at 2 h,[2]; Tissue biodistribution: Gland,0.56 ± 0.04 %ID/g
same,tissue uptake at 24 h,[2]; Tissue biodistribution: Gland,0.07 %ID/g
same,tissue uptake at 72 h,[2]; Tissue biodistribution: Gland,0.06 %ID/g
same,tissue uptake at 168 h,[2]; Tissue biodistribution: Gland,0.06 ± 0.01 %ID/g
same,tissue uptake at 24 h,[2]; Tissue biodistribution: Heart,0.06 ± 0.02 %ID/g
same,tissue uptake at 72 h,[2]; Tissue biodistribution: Heart,0.06 ± 0.01 %ID/g
same,tissue uptake at 168 h,[2]; Tissue biodistribution: Heart,0.07 %ID/g
same,tissue uptake at 2 h,[2]; Tissue biodistribution: Kidney,66.9 ± 96.1 %ID/g
same,tissue uptake at 6 h,[2]; Tissue biodistribution: Kidney,45.6 ± 37.1 %ID/g
same,tissue uptake at 24 h,[2]; Tissue biodistribution: Kidney,3.25 ± 1.04 %ID/g
same,tissue uptake at 72 h,[2]; Tissue biodistribution: Kidney,0.96 ± 0.33 %ID/g
same,tissue uptake at 2 h,[2]; Tissue biodistribution: Liver,0.21 ± 0.03 %ID/g
same,tissue uptake at 6 h,[2]; Tissue biodistribution: Liver,0.11 ± 0.04 %ID/g
same,tissue uptake at 24 h,[2]; Tissue biodistribution: Liver,0.07 ± 0.02 %ID/g
same,tissue uptake at 72 h,[2]; Tissue biodistribution: Liver,0.06 ± 0.01 %ID/g
same,tissue uptake at 168 h,[2]; Tissue biodistribution: Liver,0.04 ± 0.01 %ID/g
same,tissue uptake at 2 h,[2]; Tissue biodistribution: Lung,0.91 ± 0.06 %ID/g
same,tissue uptake at 24 h,[2]; Tissue biodistribution: Lung,0.09 ± 0.02 %ID/g
same,tissue uptake at 72 h,[2]; Tissue biodistribution: Lung,0.05 ± 0.01 %ID/g
same,tissue uptake at 168 h,[2]; Tissue biodistribution: Lung,0.05 ± 0.01 %ID/g
same,tissue uptake at 6 h,[2]; Tissue biodistribution: Muscle,0.08 ± 0.02 %ID/g
same,tissue uptake at 168 h,[2]; Tissue biodistribution: Muscle,0.03 ± 0.02 %ID/g
same,tissue uptake at 2 h,[2]; Tissue biodistribution: Spleen,0.7 ± 0.21 %ID/g
same,tissue uptake at 6 h,[2]; Tissue biodistribution: Spleen,0.36 ± 0.04 %ID/g
same,tissue uptake at 2 h,[2]; Tissue biodistribution: Tumor,30.2 ± 5.26 %ID/g
same,tissue uptake at 6 h,[2]; Tissue biodistribution: Tumor,27.4 ± 7.91 %ID/g
same,tissue uptake at 24 h,[2]; Tissue biodistribution: Tumor,19.8 ± 4.66 %ID/g
same,tissue uptake at 72 h,[2]; Tissue biodistribution: Tumor,11.9 ± 1.2 %ID/g
same,tissue uptake at 168 h,[2]; Tissue biodistribution: Tumor,4.74 ± 1.95 %ID/g
